Results from PMC8388095, “Specificity of Small c-Type Cytochromes in Anaerobic Ammonium Oxidation” (ACS Omega, 2021).

Assays:
[1] = molecular target: Kuenenia stuttgartiensis hydroxylamine oxidase (Kuenenia stuttgartiensis) (UniProt Q1PX48)
purified protein = substrate: NO; assay: purified protein; type: biochemical, Candidatus Kuenenia stuttgartensis; details: electron acceptor 50 μM bovine cytochrome c, 20 mM potassium phosphate pH 7.0, 37 °C, kcat per KsHAO trimer

Kustc0563nt (Kustc0563 after cleavage of the N-terminal His-tag) (natural protein)
Vmax NH2OH of hydroxylamine oxidation by KsHAO with 50 μM Kustc0563 as the electron acceptor (reduction of the acceptor followed at 550 nm) [1]: 15.8 µmol/min/mg
kcat NH2OH (KsHAO trimer) of hydroxylamine oxidation by KsHAO with 50 μM Kustc0563 as the electron acceptor [1]: 48.4 s^–1

bovine (Bos taurus) mitochondrial cytochrome c (from UniProt P62894 1-105) (natural protein)
Vmax NH2OH of hydroxylamine oxidation by KsHAO with 50 μM BtCytc as the electron acceptor (reduction of the acceptor followed at 550 nm) [1]: 2.7 µmol/min/mg
kcat NH2OH (KsHAO trimer) of hydroxylamine oxidation by KsHAO with 50 μM BtCytc as the electron acceptor [1]: 8.4 s^–1

B1: KsHAO (Candidatus Kuenenia stuttgartensis) (protein)
chain: CAMENGVAMAEGPTFQDVASQVFGQPVGPDNDGTLYIFGLTAKYTEPEYVDGRGPYKSFLKMLPSIRWYDPEHYWTNGSQTEGVFKNEECVLCHTVQTPTIVNDWKQSSHGSKDIRRGIGIKKDGKPVEDLVGCADCHGNNHQKLEMPTYKLCNDCHPKETAEHRAGGLGSHTHAYTVNVLEFSWHVGKPAEEVTGCAHCHAIAENRCSGCHTRHKFDPAEARKPTACRVCHMGIDHDEWAMYNTSIHGALYEAESARMDWGKKLKKGNYRVPTCAYCHMQNGDHNPQRFGTIYSDMGMFQVDRGAPKHKAKRDSWIKLCQDCHSPRFAADKLKEMDAGVNLSFTKWREAAAVIVGCYLDGVVDPMPEGSAPDWYGHYTFSLLPGGDPRFYATSNLERLGLEMICYLTGNVYKAYAHMSMYNQTYGNGSAFEQDRKLVEIKTEAAKLRRFAAIEKKIGLEHKSADFWKHGEYLDLLPGWKRKPGDVDVEWFKRTDIPHRANADAGVEIHH
notes: octaheme c-type cytochrome, trimeric; preparation not described
Km (purified protein): 5.8 ± 0.7 µM
Vmax (purified protein): 2.7 µmol/min/mg
kcat (purified protein): 8.4 s⁻¹
kcat/Km (purified protein): 1.4e+06 M⁻¹ s⁻¹
